The labels stand for the following.
B1: HDV Ribozyme (parent)
chain: GGCCGGCAUGGUCCCAGCCUCCUCGCUGGCGCCGGCUGGGCAACAUUCCGAGGGGACCGUCCCCUCGGUAAUGGCGAAUGGGACCCA

In the RNAGym collection of RNA variant scans (doi:10.7554/elife.80360) one finds self-cleavage data, which are given here for 32 variants.

Variants of B1 are the subject of this data set. As to the kind of experiment: self-cleavage, relative activity (ratio to wild type); higher = more cleavage; co-transcriptional.
As to GGCCGGCAUGGUCCCAGCCUCCUCGCUGGCGCCCGCUGGGCAACAUUCCGAGGGGACGGUCCCCUCGGUAAUGGCGAAUGGGACCCA, the self-cleavage was determined as 0.287.

Turning to GGCCGGAAUGGUCCCAGCCUCCUCGCUGGCGCCGGCUGGGCAACAUUCCGAGGGGACCGGCCCCUCGGUAAUGGCGAAUGGGACCCA, the self-cleavage was 0.356.

Take GGCCGGCAUGGUCCCAGCCUCCUCGCUGGCGCCGGCCGGGCAACAUUCCGAGGGGACCGUCCCCUCGGUAAUGGCGAAUGGGCCCCA: the self-cleavage came to 0.383.

GGCCGGCAUGGUCCCAGCCUCCUCGCUGGCUCCGGCUGGGCAACAUUCCGAGGGGAGCGUCCCCUCGGUAAUGGCGAAUGGGACCCA: the self-cleavage amounted to 0.439.

For GGCCGGCAUGGUCCCAGCCUCCUCGCUGUCGCCGGCUGGGCAAAAUUCCGAGGGGACCGUCCCCUCGGUAAUGGCGAAUGGGACCCA, the self-cleavage worked out at 0.0297.

As to GGCCGGCAUGGUCCCAGCCUCCUCGCUGGCGCCGGCUGGGCAACACUCCGAGGGGACCGUGCCCUCGGUAAUGGCGAAUGGGACCCA, the self-cleavage turned out to be 0.734.

For GGCCGGCAUGGUCCCAGCCUCCUCGCUGGCGCCUGCUGGGCAACAUUCCGAUGGGACCGUCCCCUCGGUAAUGGCGAAUGGGACCCA, the self-cleavage came out at 0.0588.

In the case of GGCCGGCAUGGUCCCAGCCUCCUCGCUGGCGCCGGCUGGGCAACAUGCCGAGGGGACCGUCCCCUCAGUAAUGGCGAAUGGGACCCA, the self-cleavage amounted to 0.831.

With GGCCGGCAUGGUCCCAGCCUCCUCGCUGGCGCCGGCUGGGCAACAUUGCGAGGGGACCAUCCCCUCGGUAAUGGCGAAUGGGACCCA, the self-cleavage amounted to 0.92.

In the case of GGCCGGCAUGGUCCCAGCCUCCUCGCUGACGCCGGCUGGGCAACAUUCCGAGGGGACCGUCCCCUCAGUAAUGGCGAAUGGGACCCA, the self-cleavage turned out to be 0.0791.

For GGCCGGCAUGGUCCCAGCCUCCUCGCUGGCGCCGGCUGGGCAACAUUCCGUGGGGACCGUCCCCUCGUUAAUGGCGAAUGGGACCCA, the self-cleavage is 0.9.

As for GGCCGGCAUGGUCCCAGCCUCCUCGCUGGCGCCGGCUGGGCAACAUUCCGAGGGGACCGUCGCCUGGGUAAUGGCGAAUGGGACCCA, the self-cleavage came out at 0.249.

Regarding GGCCGGCAUAGUCCCAGCCUCCUCUCUGGCGCCGGCUGGGCAACAUUCCGAGGGGACCGUCCCCUCGGUAAUGGCGAAUGGGACCCA, the self-cleavage came to 0.0678.

GGCCGGCAUGGUCCCAGCCCCCUCGCUGGCGCCGGCUGGGCAACAUUCCGAGGGGACCGUCUCCUCGGUAAUGGCGAAUGGGACCCA: the self-cleavage came to 0.0875.

As for GGCCGGCAUGGUCCCAGCCUCCUCGCUGGCGCCGGCUGGGCAACAUUCCGAGGGGACCGUCCCCUCGGUCAUGGCGGAUGGGACCCA, the self-cleavage was determined as 0.808.

As to GGCCAGCAUGGUCCCAGCCUCCUCGCUGGCGCCGGCUGGUCAACAUUCCGAGGGGACCGUCCCCUCGGUAAUGGCGAAUGGGACCCA, the self-cleavage worked out at 0.119.

For the variant GGCCGGCAUGGUCCCAGCCUCCUCGCUGGCGCCGGGUGGGCAACAUUCCGAGGGGACCGUCCCCUCGGUAAUGGCGAAAGGGACCCA, the self-cleavage worked out at 0.095.

Consider GGCCGGCAUGGUACCAGCCUCCUCGCUGGCGCCGGCUGGGCAACAUUACGAGGGGACCGUCCCCUCGGUAAUGGCGAAUGGGACCCA, for which the self-cleavage came to 0.

Consider GGCCGGCAUGGUCCCAGCCUCCUCGCUAGCGCCUGCUGGGCAACAUUCCGAGGGGACCGUCCCCUCGGUAAUGGCGAAUGGGACCCA, for which the self-cleavage stood at 0.0277.

In the case of GGCCGGUAUGGUCCCAGCCUCCUCGCUGGCGCCGGCUGGGCAACAUUCCGAUGGGACCGUCCCCUCGGUAAUGGCGAAUGGGACCCA, the self-cleavage came out at 0.562.

Regarding GGCCGGCAUGGUCCCAGCCUCCUCGCUGGCGCCGGCUGGGCAACAUUCCGAGGGGACCUUCCCCUCGGUAAUGGCGAUUGGGACCCA, the self-cleavage is 0.285.

On to GGCCGGCAUGGUCCCAGCCUCCUCGCUGGCGCCGGCUGGGCAACAUUCCGAGGGGAUCGUCCCCUCGGUACUGGCGAAUGGGACCCA, for which the self-cleavage worked out at 0.923.

Turning to GGCCCGCAUGGUCCCAGCCUCCUCGCUGGCGCCGGCUGGGCAAUAUUCCGAGGGGACCGUCCCCUCGGUAAUGGCGAAUGGGACCCA, the self-cleavage turned out to be 0.0504.

GGGCCGCAUGGUCCCAGCCUCCUCGCUGGCGCCGGCUGGGCAACAUUCCGAGGGGACCGUCCCCUCGGUAAUGGCGAAUGGGACCCA: the self-cleavage is 1.5.

As for AGCCGGCAUGGUCCCAGCCUCCUCGCUGGCGCCGGCUGGGCAACAUUCCGAGGGGACCGUCCCCUCGCUAAUGGCGAAUGGGACCCA, the self-cleavage was 0.0978.

Take GGCCGGCAUGGUCCCAGCCUCCUCGCUGGCGCCGGCUGGGCAACAAUCCGAGGGGACCGUCCCCUCGGUAAUGGCGAAUGGGACCGA: the self-cleavage stood at 0.831.

With GGCCGGCAUGGUCUCAGCCUCCUCGCUGGCGCCGGCUGGGCAACAUUCCGAGGGGACCGUCCCCUCGGUAAUGGCGAUUGGGACCCA, the self-cleavage worked out at 0.156.

For the variant GGCCGGCAUGGUCCCAGCCACCUCGCUGGCGCCGGCUGGGCAACAUUCCGAGGUGACCGUCCCCUCGGUAAUGGCGAAUGGGACCCA, the self-cleavage was 0.0923.

GGCCGGCAUGGUACCAGCCUCGUCGCUGGCGCCGGCUGGGCAACAUUCCGAGGGGACCGUCCCCUCGGUAAUGGCGAAUGGGACCCA: the self-cleavage turned out to be 0.026.

Turning to GGCCGGCAUAGUCCCAGCCUCCUCGCUGGCGCCGGCUGGGCAACAUUCCGAGGGGUCCGUCCCCUCGGUAAUGGCGAAUGGGACCCA, the self-cleavage was determined as 0.845.

GGCCGGCAUGGUCCCAGCCUCCUCGCUGGCGCCGGCUGGGCAACAUUCCGAGGGCACCGUCCCCUCGGCAAUGGCGAAUGGGACCCA: the self-cleavage amounted to 1.

On to GGCCGGCAUGGUCCCAGCCUCCUCGCUGGCGCCGGCUGGGCAACAUUCCGAGGGGACCGUCCCCUCGGUAAUUGCGAAUGGGACCCA, for which the self-cleavage is 0.382.
